In patent publication US20210155703A1 (Bristol-Myers Squibb, published 2021):

Assays:
[1] = biological target: T1, cynomolgus CD27 on cynomolgus T cells (cynomolgus monkey); assay: flow cytometry on cynomolgus T cells, FIG. 1B
T1 construct: whole, on cells; also called cCD27

[2] = biological target: T2, human CD27 on human T cells (human, UniProt P26842 21-260); assay: cell-based or functional assay
T2 sequence: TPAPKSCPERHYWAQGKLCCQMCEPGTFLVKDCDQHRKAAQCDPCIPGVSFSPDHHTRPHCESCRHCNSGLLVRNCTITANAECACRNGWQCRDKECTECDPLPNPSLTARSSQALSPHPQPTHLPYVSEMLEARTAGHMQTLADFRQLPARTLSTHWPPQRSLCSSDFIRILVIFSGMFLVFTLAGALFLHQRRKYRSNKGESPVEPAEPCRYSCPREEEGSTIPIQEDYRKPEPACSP

[3] = biological target: T2, human CD27 on human T cells; assay: blocking assay by flow cytometry: human T cells with antibody in the presence of 10 µg/ml soluble human CD70; blocked ligand CD70 detected with labelled anti-CD70
From the text: Binding of the Abs in the assay was detected by a labeled anti-human IgG Ab (*, ahIgG). […] Binding of the ligand blocking 1F5 Ab was not detected. […] CD70 was detected by a labeled anti-CD70 Ab (*, aCD70). […] Binding of CD70 decreased with increasing concentrations of the ligand blocking 1F5 Ab. “MFI,” “hIgG1,” and “FL2” are as described for FIG. 1. “FL1” in (B) indicates measurement in fluorescence channel 1 (FL1).
The presence or absence of binding of the Abs was detected using a labeled anti-human IgG Ab. […] See FIG. 2A, showing a schematic of the assay, and FIG. 2B, showing a graph of the results. Binding of the ligand blocking 1F5 Ab was not detected. Id. […] CD70 was detected by a labeled anti-CD70 Ab.

[4] = biological target: T2, human CD27 on human T cells; assay: flow cytometry on human T cells, FIG. 1A
[5] = biological target: T2, human CD27 on human T cells; assay: flow cytometry on human T cells, n=5; mean of n=5
[6] = biological target: T2, human CD27 on human T cells; assay: flow cytometry on human T cells pretreated with 10 µg/ml human CD70; bound antibody detected with labelled anti-human IgG
[7] = biological target: T1, cynomolgus CD27 on cynomolgus T cells; assay: estimated in vivo serum EC50 for 50% CD27 receptor occupancy in monkey whole blood, Emax model
From the text: Criteria for evaluation included clinical observations, hematology, PK, CD27 receptor occupancy (RO), circulating sCD27 levels, lymphocyte subset analysis, cytokine levels, and ADA determination. Blood samples were obtained prior to dosing and at various intervals up to 42 days post-dose. Overall, there were no adverse findings, including no adverse clinical observations and no changes in hematologic parameters. There were time- and dose-dependent increases in circulating sCD27 levels. […] There were no significant changes in circulating lymphocyte subsets including CD4⁺, Treg (Foxp3⁺/CD4⁺), CD8⁺ T, CD20⁺ B, and NK cells, or circulating cytokine levels.

[8] = biological target: T3, human CD27 (hCD27), form in the assay not stated (human, UniProt P26842 20-260, limits assumed); assay: Scatchard analysis; format not stated; Scatchard analysis, not SPR; antibody, format not stated
T3 construct: Whole entry named
T3 sequence: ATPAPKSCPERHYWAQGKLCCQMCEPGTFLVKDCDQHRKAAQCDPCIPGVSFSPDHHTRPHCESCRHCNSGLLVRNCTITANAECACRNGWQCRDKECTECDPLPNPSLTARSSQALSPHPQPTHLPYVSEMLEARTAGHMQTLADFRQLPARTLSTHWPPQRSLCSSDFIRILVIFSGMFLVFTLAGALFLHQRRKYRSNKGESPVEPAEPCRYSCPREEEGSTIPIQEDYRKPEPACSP

[9] = biological target: T2, human CD27 on human T cells; assay: flow cytometry on human T cells, n=5; lowest of the n=5 determinations
[10] = biological target: T1, cynomolgus CD27 on cynomolgus T cells; assay: binding to cynomolgus T cells
[11] = biological target: T2, human CD27 on human T cells; assay: flow cytometry on human T cells, n=5; highest of the n=5 determinations
[12] = biological target: T4, hCD27-mouseFc or hCD27-Histag proteins (human, UniProt P26842 20-191); assay: SPR; due to an increased dissociation rate, association rate unchanged
T4 construct: not shown: mouse Fc or His tag
T4 sequence: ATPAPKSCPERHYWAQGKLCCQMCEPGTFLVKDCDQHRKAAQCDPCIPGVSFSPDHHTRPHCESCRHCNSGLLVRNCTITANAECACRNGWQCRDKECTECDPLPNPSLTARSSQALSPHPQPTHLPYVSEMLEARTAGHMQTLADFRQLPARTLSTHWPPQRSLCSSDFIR
Protocol: (§1) The measured values were 41-44 nM at 37° C. and 13-16 nM at 25° C. […] The kinetic analysis used a 1:1 fit binding model.

[13] = biological target: T4, hCD27-mouseFc or hCD27-Histag proteins; assay: SPR at 37 C, Fab with hCD27-mouseFc or hCD27-Histag, 1:1 fit binding model; 37 C; lower end of the measured values
Protocol: as §1

[14] = biological target: T4, hCD27-mouseFc or hCD27-Histag proteins; assay: SPR at 25 C, Fab with hCD27-mouseFc or hCD27-Histag, 1:1 fit binding model; 25 C; lower end of the measured values
Protocol: as §1

B1: Reference HuMAb 1F5 (human anti-hCD27 mAb, ligand blocking) (antibody, human IgG1, kappa, V domains shown)
VH: QVQLVESGGGVVQPGRSLRLSCAASGFTFSSYDMHWVRQAPGKGLEWVAVIWYDGSNKYYADSVKGRFTISRDNSKNTLYLQMNSLRAEDTAVYYCARGSGNWGFFDYWGQGTLVTVSS
VL: DIQMTQSPSSLSASVGDRVTITCRASQGISRWLAWYQQKPEKAPKSLIYAASSLQSGVPSRFSGSGSGTDFTLTISSLQPEDFATYYCQQYNTYPRTFGQGTKVEIKR
notes: also called 1F5-IgG1
- EC50 [1]: 1.8 nM
- IFN-γ production of CD4+CD45RO+ memory T cells, CHO-svCD3-CD32a co-culture (EC50) [2]: 0.089 nM
- IFN-γ secretion in FIG. 6(B), CHO-svCD3-CD32a co-culture (EC50) [2]: 0.0402 nM
- T cell proliferation in FIG. 6(A), CHO-svCD3-CD32a co-culture (EC50) [2]: 0.0357 nM
- proliferation of CD4+CD45RO+ memory T cells, CHO-svCD3-CD32a co-culture (EC50) [2]: 0.073 nM
- IC50 (read off the curve) [3]: ~1 nM
- EC50 [4]: 1.09 nM

B2: HuMAb BMS-986215 (human IgG1 anti-human CD27 monoclonal antibody) (antibody, V domains shown)
VH: QVQLVQSGSEVKKPGASVKVSCKASGYTFTTYAMNWVRQAPGQGLEWMGWINTNTGNPTYAQGFTGRFVFSLDTSVNTAYLQISSLKAEDTAVYYCARDFGGFDYWGQGTLVTVSS
VL: AIQLTQSPSSLSASVGDRVTITCRASQGISSALAWYQQKPGKAPKLLINDASSLESGVPSRFSGSGSGTDFTLTISSLQPEDFATYYCQQFNNYPRTFGQGTKVEIKR
modifications: N-terminal glutamine to pyroglutamate; N-glycan at N297 (Table 4)
notes: Full-length human IgG1 produced in CHO cells; derived from clone 16D9
- EC50 [1]: 0.092 nM
- EC50 [5]: 0.044 nM
- EC50 (read off the curve) [6]: ~0.1 nM
- IFN-γ production of CD4+CD45RO+ memory T cells, CHO-svCD3-CD32a co-culture (EC50) [2]: 0.015 nM
- IFN-γ secretion in FIG. 6(B), CHO-svCD3-CD32a co-culture (EC50) [2]: 0.00624 nM
- IFN-γ secretion, CHO-svCD3-CD32a co-culture (mean EC50) [2]: 0.0078 nM
- IL-2 release from SEB-stimulated PBMCs, with PD-1 blockade against without [2]: 2 fold
- T cell proliferation in FIG. 6(A), CHO-svCD3-CD32a co-culture (EC50) [2]: 0.0045 nM
- T cell proliferation, CHO-svCD3-CD32a co-culture (mean EC50) [2]: 0.009 nM
- induction of IFN-γ secretion from CD4+CD25- T cells co-cultured with B cells, 100 ng/ml SEB, antibody at 10 µg/ml [2]: > 2.5 fold
- proliferation of CD4+CD45RO+ memory T cells, CHO-svCD3-CD32a co-culture (EC50) [2]: 0.005 nM
- EC50 [7]: 0.08 nM
- Kd [8]: 0.045 nM
- EC50 [9]: 0.022 to 0.076 nM
- EC50 [4]: 0.0221 nM
- EC50 [10]: ~5 ng/mL
- EC50 [11]: 0.022 to 0.076 nM

B3: Fab fragment of BMS-986215 (Fab, V domains shown)
VH: B2 VH
VL: AIQLTQSPSSLSASVGDRVTITCRASQGISSALAWYQQKPGKAPKLLINDASSLESGVPSRFSGSGSGTDFTLTISSLQPEDFATYYCQQFNNYPRTFGQGTKVEIK
- fold loss of affinity from 25° C. to 37° C. [12]: 3 fold
- Kd [13]: 41 to 44 nM
- Kd [14]: 13 to 16 nM
